Measurements from US12297265B2, “Antibody and use thereof” (SICHUAN KELUN-BIOTECH BIOPHARMACEUTICAL CO., LTD., priority 2018, dated 2025).
Marks after values point to notes of the source that are not given here.

Key:
Format in all cases: binding
human Claudin18.2 [1] = molecular target: T1, human Claudin18.2 (Homo sapiens, UniProt P56856); assay: FACS positive rate of NUGC-4 cells; set-up: cell lines endogenously expressing human Claudin18.2; host or cells: NUGC-4 human gastric cancer cell line; conditions: NUGC-4 cells endogenously expressing human Claudin18.2, FACS
Experimental: To determine binding affinity of the candidate antibodies to cell lines endogenously expressing human Claudin18.2, FACS analysis was performed to detect human Claudin18.2 expression level on NUGC-4 cells (purchased from Japan JCRB cell bank, catalog number: JCRB0834) which endogenously expresses human Claudin18.2. […] The binding affinity between candidate antibodies and NUGC-4 cells was then determined by Cellular ELISA following the same protocol as above.

human Claudin18.2 [2] = molecular target: T1, human Claudin18.2; assay: FACS affinity of chimeric antibodies to Ba/F3-Claudin18.2 cells; set-up: expressed in transfected cells; host or cells: Ba/F3 (BaF/3, DSMZ ACC300), hygromycin-selected monoclonal line
Description: The amino acid sequence of the light chain variable region of 1E9.2, 2C6.9, 6B9.22, 9C8.1, 16A9.11, 19G10.14 or 19H11.6 was linked to the amino acid sequence of the light chain constant region κ (SEQ ID NO: 43) respectively; the amino acid sequence of the heavy chain variable region was linked to the amino acid sequence of IgG1 heavy chain constant region (SEQ ID NO: 42) respectively, to construct the chimeric antibody. Codon optimized cDNA was synthesized and cloned to pcDNA3.4 (synthesized by Nanjing Genscript Biotech Corporation). The pcDNA3.4 plasmids coding the light chain and heavy chain of each antibody were co-transfected to Expi293F cells (purchased from Thermo Fisher). The antibodies were purified from culture supernatant by protein A (MabSelect SuRe, GE). And the purified chimeric antibodies were named 1E9.2-hz00, 2C6.9-hz00, 6B9.22-hz00, 9C8.1-hz00, 16A9.11-hz00, 19G10.14-hz00 and 19H11.6-hz00.
The affinity of the anti-Claudin18.2 chimeric antibodies to Ba/F3-Claudin18.2 cells were determined. […] The cells were then analyzed by FACS.

human Claudin18.2 [3] = molecular target: T1, human Claudin18.2; assay: Affinity of chimeric and humanized antibodies to Ba/F3-Claudin 18.2 cells (IntelliCyt); set-up: expressed in transfected cells; host or cells: Ba/F3 (BaF/3, DSMZ ACC300), hygromycin-selected monoclonal line
Description: In order to evaluate the anti-Claudin18.2 humanized antibodies, codon optimized cDNAs of the heavy chains and the light chains of the candidate humanized antibodies from Example 6 were synthesized and ligated into pcDNA3.4 (by Nanjing Genscript Biotech Corporation). Expi293F cells (purchased from Thermo Incorporation) were co-transfected with pcDNA3.4 coding the heavy chain and light chain of each antibody. The antibodies were purified from the supernatant using protein A (MabSelect SuRe, GE). The affinity of the humanized antibodies to Claudin18.2 was determined using Ba/F3-Claudin18.2 cells which over-expressed human Claudin18.2. Ba/F3-Claudin18.2 cells (60000 in 10 ul buffer) were incubated with purified humanized antibodies on ice for 30 min, followed by washing with buffer (PBS+2% FBS) twice and addition of Alexa647-labeled goat-anti-human IgG Fc antibody (1:500 dilution). The cells were incubated on ice for another 30 min and analyzed by IntelliCyt.

human Claudin18.2 [4] = molecular target: T1, human Claudin18.2; assay: Cellular ELISA on L929-Claudin 18.2 cells; set-up: expressed in transfected cells; host or cells: L929, infected with pLVX-IRES-puro lentivirus, puromycin-selected monoclonal line; cells were formaldehyde-fixed for the cellular ELISA
Experimental: Human Claudin18.2 is a four transmembrane protein and has a complex structure. Cellular ELISA was thus carried out to maintain the structure of Claudin18.2. The stable cell line L929-Claudin 18.2 constructed in Example 1 were used for detection. Specifically, L929-Claudin 18.2 adherent cells were detached by 2 mM EDTA treatment. The cells were resuspended and adjusted to 2×10^5/mL and 100 μL of the resuspension was plated into 96 well plate and incubated overnight at 37° C. The next day, the media was removed, and the plate was washed with PBS once. 100 μL/well 4% formaldehyde was added to the plate. After 30 min of incubation at room temperature, formaldehyde was removed, followed by washing twice with PBS. Blocking buffer (PBS containing 2% BSA) was then added to the plate at 100 μL/well, and incubated at 37° C. for 2 h. After removal of blocking buffer, 100 μL/well of serially diluted antibodies (starting from 1 μM, with 4-fold dilution, for a total of 11 concentrations) were added to the corresponding wells, which were incubated at 37° C. for 2h afterwards. The plate was washed with 250 μL PBST for 5 times, and was allowed to stand for 2 min each time. 100 μL/well of horseradish peroxidase labeled anti-Human IgG secondary antibody (HRP-anti-Human IgG, Jackson ImmunoResearch, 109-035-003) diluted 1:10000 in PBS (containing 2% BSA) was added to the plate. The plate was incubated at 37° C. for 1 h and washed with 250 μL PB ST 6 times, wherein the plate was allowed to stand for 2 min each time. 100 μL/well of TMB solution (Thermo, 34029) was added. The reactions were incubated at 37° C. for 20 min and stopped with 50 μL 2 mol/L H2504. The absorbance at 450 nm was read on a plate reader (MD, SpectraMax M2) and the results were subjected to curve fitting by Graphpad Prism.

NUGC-4 cells tested positive for Claudin 18.2 (human Claudin18.2 [1]): 20%
Max MFI (human Claudin18.2 [2]): 8.97 ×10^6
Max MFI (human Claudin18.2 [3]): 4.99* ×10^6
Max Signal Value (OD450) (human Claudin18.2 [4]; Table 8 experiment): 0.82 OD450
Max Signal Value (OD450) (human Claudin18.2 [4]; Table 9 experiment): 0.53 OD450
Substance: IMAB362: Zolbetuximab (IMAB362) developed by Astellas, human-mouse chimeric IgG1 antibody targeting Claudin 18.2; control antibody, sequences from CN 101312989 B [reference compound]
